Values joined by “and” are separate entries in the source; they are usually repeats but may differ in a detail not shown here. Identical values can stand only once.

Assay [1] deals with Human IgG1 Fc bearing the Abdeg mutations (efgartigimod) (human). Kind of assay: SPR + BLI; Fcs immobilised on chips or captured on biosensors; human or mouse FcRn at 1,600 nM to 50 nM in 2-fold dilutions, pH 6.0; Biacore 3000 and Octet K2 both named. For orientation: In SPR one partner is held on a chip, and binding of the other changes the refractive index at the surface.
Assay [2] concerns the target Human IgG1 Fc bearing the F241A mutation, produced in CHO-K1 cells coexpressing hST6GAL1 and hB4GALT1 (human). The description is as above.
The target in assay [3] is Human IgG1 Fc bearing the Abdeg mutations (Fc^Abdeg, efgartigimod) (human). In words: SPR + BLI; Fc immobilised on chips / captured on biosensors; human or mouse FcRn at 1,600 nM to 50 nM in 2-fold dilutions, pH 6.0; Biacore 3000 and Octet K2 are both named.
The target of assay [4] is Wild-type human IgG1 Fc (human). In words: SPR + BLI; Fcs immobilised on chips or captured on biosensors; human or mouse FcRn at 1,600 nM to 50 nM in 2-fold dilutions, pH 6.0; Biacore 3000 and Octet K2 both named.
Assay [5] addresses Specific ICAM-3–grabbing non-integrin-related-1 (SIGN-R1; CD209b) (UniProt Q8CJ91). Kind of assay: flow cytometry on cells (SIGN-R1+/+ murine BMDMs). As to conditions: type I FcγRs blocked; PBS control = 1; read off a plot. Background: In flow cytometry, cells or beads pass a laser one at a time.

Sequence of Mouse neonatal Fc receptor (FcRn) (Q61559 22-297): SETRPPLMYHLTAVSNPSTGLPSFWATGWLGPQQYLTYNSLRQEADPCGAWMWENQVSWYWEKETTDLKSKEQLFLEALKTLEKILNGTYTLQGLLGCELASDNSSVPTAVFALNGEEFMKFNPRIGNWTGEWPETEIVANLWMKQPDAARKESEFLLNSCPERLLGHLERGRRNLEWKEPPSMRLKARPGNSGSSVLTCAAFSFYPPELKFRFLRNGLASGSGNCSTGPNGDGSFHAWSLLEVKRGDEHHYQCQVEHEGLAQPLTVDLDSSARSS
Sequence of Mouse neonatal Fc receptor (FcRn) (P01887 21-119): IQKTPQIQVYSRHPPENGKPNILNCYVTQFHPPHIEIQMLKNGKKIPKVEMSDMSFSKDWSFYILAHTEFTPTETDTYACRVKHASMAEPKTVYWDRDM
Sequence of Human neonatal Fc receptor (FcRn) (P55899 24-297): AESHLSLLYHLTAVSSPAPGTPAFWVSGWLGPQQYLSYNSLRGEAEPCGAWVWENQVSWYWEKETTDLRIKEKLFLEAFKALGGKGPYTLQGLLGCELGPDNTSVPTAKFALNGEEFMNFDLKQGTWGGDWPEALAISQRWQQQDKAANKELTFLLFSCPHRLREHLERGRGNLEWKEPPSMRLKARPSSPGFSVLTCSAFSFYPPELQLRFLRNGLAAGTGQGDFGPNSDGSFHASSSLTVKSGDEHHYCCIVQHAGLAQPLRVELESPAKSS
Sequence of Human neonatal Fc receptor (FcRn) (P61769 21-119): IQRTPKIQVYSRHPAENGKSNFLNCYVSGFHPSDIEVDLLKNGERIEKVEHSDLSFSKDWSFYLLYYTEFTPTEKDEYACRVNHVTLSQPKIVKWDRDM
Sequence of Specific ICAM-3–grabbing non-integrin-related-1 (SIGN-R1; CD209b) (Q8CJ91 whole entry): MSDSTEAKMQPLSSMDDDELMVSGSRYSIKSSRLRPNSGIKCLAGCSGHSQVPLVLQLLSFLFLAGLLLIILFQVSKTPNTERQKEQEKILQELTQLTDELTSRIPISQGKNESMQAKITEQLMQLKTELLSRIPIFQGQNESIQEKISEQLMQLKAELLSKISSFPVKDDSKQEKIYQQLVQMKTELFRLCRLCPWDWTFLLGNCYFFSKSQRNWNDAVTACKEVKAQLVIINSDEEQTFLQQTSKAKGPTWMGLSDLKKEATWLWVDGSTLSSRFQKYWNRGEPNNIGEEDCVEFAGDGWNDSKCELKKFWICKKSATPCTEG

On to “Human neonatal Fc receptor (FcRn) (from UniProt P55899 24-297; P61769 21-119)”, for which the equilibrium dissociation constant (Kd) (in general, the concentration at which binding is half-saturated) is 6 nM in assay [1]; 131 nM and 260 nM and 208 nM in assay [2].
Turning to “Human neonatal Fc receptor (hFcRn) (from UniProt P55899 24-297)”, in assay [3], the fold enhanced affinity compared with Fc^F241A and Fc^WT came out at 96 fold; the fold lower KD than that of Fc^F241A/B4ST6 came out at 39 fold.
Regarding “Mouse neonatal Fc receptor (FcRn) (from UniProt Q61559 22-297; P01887 21-119)”, the equilibrium dissociation constant (Kd) is 51.6 nM and 73.2 nM and 85.8 nM in assay [4]; 0.27 nM and 0.28 nM and 0.26 nM in assay [1]; 50.8 nM and 77.5 nM and 86.7 nM in assay [2].
As for “Mouse neonatal Fc receptor (mFcRn) (from UniProt Q61559 22-297)”, in assay [3], the fold enhanced affinity compared with human FcRn was greater than 10 fold and the fold lower KD than that of Fc^F241A/B4ST6 came to 267 fold.
For the substance Wild-type human IgG1 Fc (Fc^WT) F241A, in assay [5], the response (fold change in MFI (normalized to PBS)) was determined as 1.6.

Source of the values: publication PMC10866649.
